Target: the molecule itself
Experiment: size exclusion chromatography (Superose 6), non-denaturing; self-association
Protocol: Size Exclusion Chromatography. Size exclusion chromatography (SEC) was performed by FPLC using a 24 ml Superose 6 (S6) column (GE Healthcare, Pittsburgh, Pa.). The chromoproteins (100 μl of a 5 mg/ml sample) were first purified through the phenyl HP step, dissolved in 30 mM Tris-HCl (pH 8.0) and 200 mM NaCl, and either loaded onto the column as Pr or immediately following saturating irradiation of the sample with red light (630 nm). Absorption spectra were recorded before and after SEC to verify that the chromoproteins remained enriched in the desired states (Pr or Pfr).
SEC has shown that most, if not all, Phys are dimeric with their binding interface(s) involving one or more regions, including the GAF domain in DrBphP, the PAS-GAF-PHY domain in Syn-Cph1, and the C-terminal HK and HK-related regions in microbial and higher plants Phys. […] Whereas the GAF domain alone as Pr behaved as a monomer of 22 kDa, consistent with its calculated molecular mass of 23.3 kDa, the GAF-PHY fragment behaved as a dimer species at 105-kDa, nearly twice the size of its calculated mass of 48.4 kDa (FIG. 23). […] The predicted molecular masses of monomeric SyB-Cph1 (GAF) and SyB-Cph1 (GAF-PHY) polypeptides are 23.3 kDa and 48.4 kDa, respectively, while the apparent molecular masses measured by SEC are 22 and 106 kDa, respectively.

B1: SyB-Cph1 (GAF) chromoprotein assembled with PCB (other)
chain: MDTETWAAAARPSRDALINRITHQIRQSLELDQILRATVEEVRAFLGTDRVKVYRFDPEGHGTVVAEARGGERLPSLLGLTFPAGDIPEEARRLFRLAQVRVIVDVEAQSRSISQPESWGLSARVPLGEPLQRPVDPCHVHYLKSMGVASSLVVPLMHHQELWGLLVSHHAEPRPYSQEELQVVQLLADQVSIAIAQAELHHHHHH
modifications: phycocyanobilin (PCB) covalently bound at Cys-138
notes: It ran as a monomer on SEC, both as Pr and after saturating red light; also called CYB GAF; BG
- binding result: no binding (tested: 100 µl of a 5 mg/ml sample loaded)

Reference: patent US20090061444A1 (WISCONSIN ALUMNI RESEARCH FOUNDATION, published 2009)
